# Assay results reported in the DeepSol protein solubility set.
# Test: soluble on expression in E. coli; label from the status in PepcDB or PDB records
row,Sequence,soluble on expression in E. coli
1,MGSDKIHHHHHHMLTKSSTELVRQQNSALVLAALRRKGSLSHTEIAAQTGLASATISVITAELERSGIIAKTEQHVQGGRGRPRVLFEPRRGCGYVIVVRISSDVVQYSLADYGGILLDRFEDARSHDLRGTAAFGEVLAAALERLLVRSNISKDEVLAISISSKGLVAGGGARLIWSPVFGREQLDFVELLRPAWRARIMLSNESLLVAHALAVREEERERGFHALAAVSLGHSIGLGLARRGKSGELDVSAPDFGHMLHQASAGLCRCGSYGCIEAAAGFYGILRTAFEVPSDTIPAKFVPLSEVDKIAASARQGNRMGGYAFRQAGLALGNGISRMLSLYEPMPIFVTGPGTRYFDLLEKGLEEGLAHSLQVRLQGMPQIRVVPDEQRLVFDGHLNRALGAIDGDIAAAGHP,not soluble
2,MGSDKIHHHHHHMLTYDLTKTDGPLYKCLYECIKNDISQGKLSSGEKMPSKRTLAKNLGVSTITVENAYDQLIGEGYMFARPKKGYFIADVSDIRVIKAPVQKELSIKLPPEQDESIFDFSSNRTDSGNFPFSIWAKLMRETISLREQELLSVSPCGGVRELREAIASHLSSFRGMNVDPDQIIVGAGTEYLYGLLVKLLGTDKVYCVEDPGYKKISQIYECNNAKCLPVQMDEQGISVELIKKANAQIAHISPTHHFPTGITMPVNRRYELLAWANESSDRYIIEDDYDSEFRMNGHPIPPILSIDACEKVIYINTFSKSLTSTIRISYMVLPEHLANEFYRRLSFYSCTVSTFEQYTLARFISEGYFEKHINRMRLHYGRKRQSVLSSIKGCFTEKECRVIENDSGLHFIIQFDTNLPDKTVEERLLKKGIKLQAITHFNLIKPKEDRHQFIINYSNIDADRIMDELLIIKDTIL,not soluble
3,MGSDKIHHHHHHMLVELKKPKLKDGKDQLRSYCNATGSPIAVWTNGDQISYYQRKDPNYFEDIPGLPNANQTLADILQIKFTLEDLIANDKLVKENKSLKTLIEEMEDDVLANAGVDVFEELFKLIFTKLYDEWYSGQGNRRSTRSLEFRNTGQTEAALKTKIQDLFDKAKKKWEGVFSEDAKISLTPSHLSVCVSSLENVKLFNSNLDVIDEAFEYLINQSSKGEKGQFFTPRYVIDLCVKMLNPQEDEYMIDTAAGSSGFPVHTIFHVWRQILDDEGLSASHLFSLEDKPPRCKEYVEDKVFAIDFDEKAVRVARTLNLIAGDGQTNVLHLNTLDYELWDEVTEQDDWDDIYHEGFKRLKRLRPKNSKDYREFQFDVLMANPPFAGDIKEPDTVGECNTYLYLKVLCKLKPSICRCSF,not soluble
4,MGSDKIHHHHHHMLYLIGLGLSYKSDITVRGLEAIKKCSRVYLEHYTSILMAASQEELESYYGKEIILADRELVETGSKQILNNADKEDVAFLVVGDPFGATTHTDLVLRAKREAIPVEIIHNASVMNAVGACGLQLYNFGQTVSMVFFTDNWRPDSWYDKIWENRKIGLHTLVLLDIKVKEQSIENMARGRLIYEPPRYMSIAQCCEQLLEIEEKRGTKAYTPDTPAVAISRLGSSSQSFKSGTISELANYDSGEPLHSLVILGRQCHELELEYLLEFADDKEKFGKDVANDQEYFKPAAWVPPTEDDSDE,not soluble
5,MGSDKIHHHHHHMLYRQKVLLALIDVFGGTIDRLYLQKMLFLLSQRQEKPIYEFVPYYYGGFSFTAQWDINALFRKGFLAVDKHTVTLVQKHPQLFDSVTERDMHFLHELCQQYRYKARNDLLRELYEQYPYYAQQSKILDEILDDEAKRRIKQCQDEESRIVLFTIGYEGRSLENYLNTLIRNGIKILVDVRNNPVSMKPGFSKSQLRTYCENLGIGYIHIPEVGIVSELRKNLKSQEDYEELFAAYRREILPTTVSFQQRILNILLCYHRIALTCFEAESQRCHRSHLADAISKLPEFSYEVVHL,not soluble
6,MGSDKIHHHHHHMMKKIEEARTFISERTNLSPDILIILGSGFGPFIEKVEDPVIIDYKDIPHFPQPTVEGHSGKLVFGRISDKPVMIMAGRFHLYEGHDPATVAFPVYLAKYVGVKGVVVTNAAGAINPEFKPGEIILVRDIINFMFRNPLRGPNDEKIGPRFPDMSSVVDPEWARKIQERLSLKEGVYIGVLGPSYETPAEIRVFEKLGADLVGMSTVPEVIAAKHCGLKVVVFSCVTNMAAGITHGRLSHEEVVRTTKMAQGKIEKALTTAVEVF,soluble
